Patent US20050282743A1, “Molecular interactions in cells” (Arbor Vita Corporation, priority 2001, published 2005)
Counter-ions that a name gives are not always drawn. Ends that are not written are not given here. * marks the point of attachment. Biotin = O=C1N[C@H]2[C@H](CS[C@H]2CCCCC(=O)*)N1

Columns and labels:
Type in all cases: binding
[1] = tested on: hSyntenin : Presenilin (115L); test: G assay with FDA approved drug (Example 7, TABLE 10A); details: OD in absence of drug 1.1; drug concentration per TABLE 11; read after 30 minutes
Procedure: (§1) For certain of the PDZ proteins and PL proteins shown to bind together and for which Kd values had been obtained, additional testing was conducted to determine whether certain pharmaceutical compounds would act to antagonize or agonize the interactions. Assays were conducted as for the G′ assay described supra both in the presence and absence of test compound, except that 50 ul of a 10 uM solution of the biotinylated PL peptide is allowed to react with the surface bearing the PDZ-domain polypeptide instead of a 20 uM solution as specified in step (2) of the assay.
(§2) In both tables, the first column (left to right) entitled “PDZ domain” lists the gene name of GST-PDZ domain fusion (see TABLE 9). Entries having two numbers separated by a slash indicate which PDZ domain was utilized. For example, in TABLE 10A, the entry for ZO-3 is 1/3. This means that PDZ domain 1 of 3 was used.
(§3) The second column labeled “PL” indicates the name of the PDZ ligand (see TABLES 10A and 10B) interacting with the PDZ domain. The third column entitled “Drug” lists the common or trade name of pharmaceutical compound tested and found to modulate the specific PDZ-PL interaction (suppliers and chemical information are listed in TABLE 11). The final column with the heading “Change in OD” indicates the change in absorbance at 450 nm of the assay in the absence (first number) or presence (second number) of chemical compound.
(§4) Many FDA approved drugs have unknown mechanism of function. It is quite possible that some of these drugs function by disrupting or increasing PDZ/PL interactions. This possibility was examined by using the ‘G Assay’ (Example 3 section D). FDA approved drugs were incubated in the presence of the labeled peptide and compared to the same interaction without drug to determine if there was an effect on specific PDZ:PL interactions (drugs added with peptide at step 9 in Example 3D). The primary focus of this experiment was on drugs involved in treatment of depression (amitriptyline, desipramine, trimipramine, benztropine, and nortryptilline) and epilepsy (valproic acid). No modes of action are known for these drugs.
(§5) Therapeutic dose was determined by guidelines given in the Physician's Desk Reference and in the assay, 200 times this amount was used. If a dosage range was given, the upper end of the range was used. Each interaction listed in TABLES 10A & B was tested in the ‘G Assay’ (see Example 3) against each of the drugs listed in TABLE 11. The concentration of GST-fusion protein and peptide used in the assay represent the Kd and were determined by titration. These values can be found in TABLE 7. The drugs were added to the peptide before addition to the well containing the PDZ protein. Otherwise, the assay was carried out as described and read at 450 nm after 30 minutes of developing. For the sequences of the PDZs and PLs used in these tests, see TABLES 8 & 9.
(§6) List of interactions and therapeutics for which a modulation of binding was observed. Concentrations at which the GST-PDZ fusion protein and labeled peptide were used can be found in Table 7 or Table 12.

NeDLG (PDZ Domain 1, 2) = molecular target: T1, NeDLG (PDZ Domain 1, 2) (Homo sapiens, UniProt Q92796); test: G' assay, TABLE 12; details: A450 nm class of biotinylated PL peptide bound; 0 in conc columns = peptide 10 uM, protein 5 ug/ml
T1 construct: When more than one PDZ domain was cloned, the DNA portion cloned represents the PDZ domains and the cDNA portion located between individual domains; made in house; host or cells: E. coli (DH5alpha, BL21 or JM109)
T1 sequence (Q92796 129-315 limits assumed): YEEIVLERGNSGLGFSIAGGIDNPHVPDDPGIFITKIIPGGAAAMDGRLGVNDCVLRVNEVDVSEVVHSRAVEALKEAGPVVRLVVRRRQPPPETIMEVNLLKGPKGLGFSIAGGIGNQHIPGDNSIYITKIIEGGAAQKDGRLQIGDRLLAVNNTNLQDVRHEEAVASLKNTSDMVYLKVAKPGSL
Procedure: (§7) The third column labeled “Peptide Optimal Concentration” in the tables is a number reflective of the binding interaction between the PL protein and PDZ protein. […] The column labeled “Protein Optimal Concentration” refers to the protein concentration used to assay PL interaction (in ug/ml); a ‘0’ is indicative of 5 ug/ml protein concentration; any other value represents the concentration (in ug/ml) used to determine the dissociation constant for a given interaction.
(§8) Finally, the seventh column labeled “Classification” is another measure of the level of binding. In particular, it provides an absorbance value at 450 nm which indicates the amount of PL peptide bound to the PDZ protein. The following numerical values have the following meanings: ‘1’—A450 nm 0-1; ‘2’—A450 nm 1-2; ‘3’—A450 nm 2-3; ‘4’—A450 nm 3-4; ‘5’—A450 nm of 4 more than 2× repeated; ‘0’—A450 nm 0, i.e., not found to interact. Thus, higher numbers indicate stronger interactions.
(§9) For convenience, the assay conditions described in this section are referred to as the “G′ assay” and the “G″ assay,” with the specific conditions described in the preceding section on G assays being referred to as the “G^0 assay.” The “G′ assay” is identical to the “G^0 assay” except at step (2) the peptide concentration is 10 uM instead of 20 uM. […] Correspondingly, it slightly increases the certainty that detected interactions are of sufficient affinity and half-life to be of biological importance and useful therapeutic targets.

[2] = molecular target: T2, PSD95 (PDZ Domain 1, 2, 3) (Homo sapiens, UniProt P78352); test: G' assay, TABLE 12; details: A450 nm class of biotinylated PL peptide bound; 0 in conc columns = peptide 10 uM, protein 5 ug/ml
T2 construct: When more than one PDZ domain was cloned, the DNA portion cloned represents the PDZ domains and the cDNA portion located between individual domains; made in house; host or cells: E. coli (DH5alpha, BL21 or JM109)
Procedure: as §7, §8, §9

DLG1 (PDZ Domain 1, 2) = molecular target: T3, DLG1 (PDZ Domain 1, 2) (Homo sapiens, UniProt Q12959); test: G' assay, TABLE 12; details: A450 nm class of biotinylated PL peptide bound; 0 in conc columns = peptide 10 uM, protein 5 ug/ml
T3 construct: made in house; host or cells: E. coli (DH5alpha, BL21 or JM109)
Procedure: as §7, §8, §9

[3] = molecular target: T4, PDZ protein (GST-PDZ fusion) (Homo sapiens, UniProt Q5TCQ9); test: G' assay (10 uM PL peptide), results of TABLE 7 and TABLE 12; details: PDZ KIAA1634, PDZ Domain 2
T4 construct: made in house; host or cells: E. coli (DH5alpha, BL21 or JM109)
T4 sequence (Q5TCQ9 1-1481): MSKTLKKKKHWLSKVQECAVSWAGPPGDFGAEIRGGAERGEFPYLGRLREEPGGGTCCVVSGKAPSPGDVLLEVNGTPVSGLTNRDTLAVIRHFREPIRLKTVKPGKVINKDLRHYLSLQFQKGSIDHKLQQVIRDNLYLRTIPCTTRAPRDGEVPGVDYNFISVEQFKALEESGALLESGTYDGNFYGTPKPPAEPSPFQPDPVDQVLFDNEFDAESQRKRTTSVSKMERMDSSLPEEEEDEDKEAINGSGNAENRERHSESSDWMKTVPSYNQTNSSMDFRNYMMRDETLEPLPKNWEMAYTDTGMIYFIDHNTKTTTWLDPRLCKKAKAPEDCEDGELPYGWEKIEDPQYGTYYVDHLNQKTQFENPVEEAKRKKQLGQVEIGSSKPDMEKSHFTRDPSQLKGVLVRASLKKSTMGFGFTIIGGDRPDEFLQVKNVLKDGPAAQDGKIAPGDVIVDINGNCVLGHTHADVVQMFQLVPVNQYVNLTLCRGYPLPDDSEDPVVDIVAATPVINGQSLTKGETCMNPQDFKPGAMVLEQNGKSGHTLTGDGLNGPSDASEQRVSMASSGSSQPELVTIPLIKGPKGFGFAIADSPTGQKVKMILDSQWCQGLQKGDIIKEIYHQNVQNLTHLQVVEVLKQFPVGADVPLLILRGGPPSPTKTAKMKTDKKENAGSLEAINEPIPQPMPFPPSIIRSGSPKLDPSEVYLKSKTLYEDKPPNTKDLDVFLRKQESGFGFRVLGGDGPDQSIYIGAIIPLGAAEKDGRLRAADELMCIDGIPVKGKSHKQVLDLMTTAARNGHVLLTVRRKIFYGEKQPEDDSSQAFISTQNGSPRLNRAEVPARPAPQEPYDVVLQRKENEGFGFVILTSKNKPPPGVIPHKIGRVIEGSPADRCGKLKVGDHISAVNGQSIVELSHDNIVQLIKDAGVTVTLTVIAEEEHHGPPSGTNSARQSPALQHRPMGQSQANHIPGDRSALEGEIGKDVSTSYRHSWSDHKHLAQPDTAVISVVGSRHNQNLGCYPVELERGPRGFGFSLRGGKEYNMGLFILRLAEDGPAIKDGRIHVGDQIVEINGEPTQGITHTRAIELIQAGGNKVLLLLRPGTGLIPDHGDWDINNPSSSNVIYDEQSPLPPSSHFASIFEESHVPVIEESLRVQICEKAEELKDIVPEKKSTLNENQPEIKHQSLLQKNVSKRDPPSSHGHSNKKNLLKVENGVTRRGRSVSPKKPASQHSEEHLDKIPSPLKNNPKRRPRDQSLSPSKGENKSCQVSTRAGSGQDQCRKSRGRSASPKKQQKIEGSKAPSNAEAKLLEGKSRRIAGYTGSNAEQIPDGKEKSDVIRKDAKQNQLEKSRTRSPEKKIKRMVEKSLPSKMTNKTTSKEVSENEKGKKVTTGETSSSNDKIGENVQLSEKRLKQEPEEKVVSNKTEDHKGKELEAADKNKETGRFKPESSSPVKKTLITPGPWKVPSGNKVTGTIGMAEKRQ
Procedure, shortened: (§10)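 Biotin-PL peptide (N-term label), 10 uM vs GST-PDZ; protein 5 ug/ml by default. A450 nm binned: 1 = 0-1, 2 = 1-2, 3 = 2-3, 4 = 3-4, 5 = >4 on >2 repeats, 0 = no binding.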

[4] = molecular target: T5, PDZ protein (GST-PDZ fusion) (Homo sapiens, UniProt Q12923); test: as above; details: PDZ PTPL-1, PDZ Domain 2
T5 construct: made in house; host or cells: E. coli (DH5alpha, BL21 or JM109)
T5 sequence (Q12923 whole entry, the tested form may be a part): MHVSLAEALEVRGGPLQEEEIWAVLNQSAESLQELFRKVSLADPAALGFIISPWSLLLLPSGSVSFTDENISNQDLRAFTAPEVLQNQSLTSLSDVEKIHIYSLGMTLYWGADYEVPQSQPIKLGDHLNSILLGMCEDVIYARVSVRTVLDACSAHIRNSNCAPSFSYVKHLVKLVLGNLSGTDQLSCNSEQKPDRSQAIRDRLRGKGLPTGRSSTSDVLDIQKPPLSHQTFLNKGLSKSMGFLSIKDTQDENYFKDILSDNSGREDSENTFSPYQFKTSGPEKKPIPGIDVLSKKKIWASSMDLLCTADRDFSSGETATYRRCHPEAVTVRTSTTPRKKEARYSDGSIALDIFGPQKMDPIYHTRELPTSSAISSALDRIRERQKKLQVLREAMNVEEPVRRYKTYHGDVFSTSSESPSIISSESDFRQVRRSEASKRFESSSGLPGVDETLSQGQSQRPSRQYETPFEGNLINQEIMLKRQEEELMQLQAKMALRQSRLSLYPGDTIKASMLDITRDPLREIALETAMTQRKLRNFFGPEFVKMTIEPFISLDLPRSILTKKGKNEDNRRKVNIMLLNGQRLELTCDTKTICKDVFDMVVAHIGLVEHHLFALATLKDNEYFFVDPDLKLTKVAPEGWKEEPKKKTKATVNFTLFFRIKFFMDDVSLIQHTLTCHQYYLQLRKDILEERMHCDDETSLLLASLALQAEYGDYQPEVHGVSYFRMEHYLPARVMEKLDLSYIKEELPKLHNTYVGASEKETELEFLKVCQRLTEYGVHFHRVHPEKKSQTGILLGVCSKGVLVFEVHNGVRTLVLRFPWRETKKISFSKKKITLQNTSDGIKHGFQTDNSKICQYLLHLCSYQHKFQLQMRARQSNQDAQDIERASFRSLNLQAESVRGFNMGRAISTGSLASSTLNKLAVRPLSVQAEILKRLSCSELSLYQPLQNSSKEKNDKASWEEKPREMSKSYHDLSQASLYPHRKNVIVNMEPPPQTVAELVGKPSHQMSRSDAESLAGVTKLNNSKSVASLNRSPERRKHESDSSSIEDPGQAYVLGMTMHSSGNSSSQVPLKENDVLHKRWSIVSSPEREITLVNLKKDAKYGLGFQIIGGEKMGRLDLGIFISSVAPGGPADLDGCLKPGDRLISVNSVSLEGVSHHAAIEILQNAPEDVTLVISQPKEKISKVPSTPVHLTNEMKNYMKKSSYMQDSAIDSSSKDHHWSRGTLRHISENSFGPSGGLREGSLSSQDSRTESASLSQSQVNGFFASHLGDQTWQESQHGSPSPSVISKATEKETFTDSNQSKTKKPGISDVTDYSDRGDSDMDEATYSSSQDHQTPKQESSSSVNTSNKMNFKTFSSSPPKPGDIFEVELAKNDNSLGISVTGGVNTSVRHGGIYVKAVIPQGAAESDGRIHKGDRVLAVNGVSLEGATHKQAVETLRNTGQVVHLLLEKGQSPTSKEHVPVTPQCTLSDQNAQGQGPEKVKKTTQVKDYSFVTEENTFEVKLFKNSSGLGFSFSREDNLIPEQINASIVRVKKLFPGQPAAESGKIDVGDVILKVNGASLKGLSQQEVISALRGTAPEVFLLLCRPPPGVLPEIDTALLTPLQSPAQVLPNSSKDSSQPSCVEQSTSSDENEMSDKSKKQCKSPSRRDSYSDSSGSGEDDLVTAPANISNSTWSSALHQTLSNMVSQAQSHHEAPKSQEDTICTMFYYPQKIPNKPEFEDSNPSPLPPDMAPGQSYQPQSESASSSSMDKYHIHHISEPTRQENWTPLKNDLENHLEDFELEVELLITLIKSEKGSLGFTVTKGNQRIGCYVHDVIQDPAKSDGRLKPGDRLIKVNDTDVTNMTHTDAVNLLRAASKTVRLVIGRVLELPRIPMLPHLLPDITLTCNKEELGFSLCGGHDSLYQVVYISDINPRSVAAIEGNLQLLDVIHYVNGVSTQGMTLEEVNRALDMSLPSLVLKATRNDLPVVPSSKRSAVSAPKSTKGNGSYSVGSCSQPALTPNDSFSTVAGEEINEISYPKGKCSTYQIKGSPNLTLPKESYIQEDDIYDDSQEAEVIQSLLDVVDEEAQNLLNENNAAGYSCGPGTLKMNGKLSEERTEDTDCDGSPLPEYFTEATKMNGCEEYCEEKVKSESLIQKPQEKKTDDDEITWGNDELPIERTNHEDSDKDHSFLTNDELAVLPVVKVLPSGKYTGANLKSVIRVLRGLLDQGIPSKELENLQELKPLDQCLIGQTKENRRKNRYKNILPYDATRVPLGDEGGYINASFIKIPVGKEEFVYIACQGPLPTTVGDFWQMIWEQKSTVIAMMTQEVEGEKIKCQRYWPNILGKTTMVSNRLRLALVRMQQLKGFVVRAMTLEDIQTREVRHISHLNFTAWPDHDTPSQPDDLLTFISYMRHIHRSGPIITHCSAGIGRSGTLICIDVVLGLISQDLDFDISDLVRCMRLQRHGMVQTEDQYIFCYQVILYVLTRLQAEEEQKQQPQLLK
Procedure, shortened: as §10

ZO-2 (1/3) : DNAM (22L) = molecular target: T6, ZO-2 (1/3) : DNAM (22L) (Homo sapiens, UniProt Q9UDY2); test: G assay with FDA approved drug (Example 7, TABLE 10B)
T6 construct: made in house; host or cells: E. coli (DH5α, BL21 or JM109)
T6 sequence (Q9UDY2 27-122): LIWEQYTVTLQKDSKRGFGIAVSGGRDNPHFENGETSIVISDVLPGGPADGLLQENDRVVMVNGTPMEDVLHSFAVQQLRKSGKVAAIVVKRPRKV
Procedure: as §1, §2, §3, §4, §5, §6

[5] = molecular target: T7, PDZ protein (GST-PDZ fusion) (Homo sapiens, UniProt O15021); test: G' assay (10 uM PL peptide), results of TABLE 7 and TABLE 12; details: PDZ KIAA0303, PDZ Domain 1
T7 construct: made in house; host or cells: E. coli (DH5alpha, BL21 or JM109)
T7 sequence (O15021 whole entry, the tested form may be a part): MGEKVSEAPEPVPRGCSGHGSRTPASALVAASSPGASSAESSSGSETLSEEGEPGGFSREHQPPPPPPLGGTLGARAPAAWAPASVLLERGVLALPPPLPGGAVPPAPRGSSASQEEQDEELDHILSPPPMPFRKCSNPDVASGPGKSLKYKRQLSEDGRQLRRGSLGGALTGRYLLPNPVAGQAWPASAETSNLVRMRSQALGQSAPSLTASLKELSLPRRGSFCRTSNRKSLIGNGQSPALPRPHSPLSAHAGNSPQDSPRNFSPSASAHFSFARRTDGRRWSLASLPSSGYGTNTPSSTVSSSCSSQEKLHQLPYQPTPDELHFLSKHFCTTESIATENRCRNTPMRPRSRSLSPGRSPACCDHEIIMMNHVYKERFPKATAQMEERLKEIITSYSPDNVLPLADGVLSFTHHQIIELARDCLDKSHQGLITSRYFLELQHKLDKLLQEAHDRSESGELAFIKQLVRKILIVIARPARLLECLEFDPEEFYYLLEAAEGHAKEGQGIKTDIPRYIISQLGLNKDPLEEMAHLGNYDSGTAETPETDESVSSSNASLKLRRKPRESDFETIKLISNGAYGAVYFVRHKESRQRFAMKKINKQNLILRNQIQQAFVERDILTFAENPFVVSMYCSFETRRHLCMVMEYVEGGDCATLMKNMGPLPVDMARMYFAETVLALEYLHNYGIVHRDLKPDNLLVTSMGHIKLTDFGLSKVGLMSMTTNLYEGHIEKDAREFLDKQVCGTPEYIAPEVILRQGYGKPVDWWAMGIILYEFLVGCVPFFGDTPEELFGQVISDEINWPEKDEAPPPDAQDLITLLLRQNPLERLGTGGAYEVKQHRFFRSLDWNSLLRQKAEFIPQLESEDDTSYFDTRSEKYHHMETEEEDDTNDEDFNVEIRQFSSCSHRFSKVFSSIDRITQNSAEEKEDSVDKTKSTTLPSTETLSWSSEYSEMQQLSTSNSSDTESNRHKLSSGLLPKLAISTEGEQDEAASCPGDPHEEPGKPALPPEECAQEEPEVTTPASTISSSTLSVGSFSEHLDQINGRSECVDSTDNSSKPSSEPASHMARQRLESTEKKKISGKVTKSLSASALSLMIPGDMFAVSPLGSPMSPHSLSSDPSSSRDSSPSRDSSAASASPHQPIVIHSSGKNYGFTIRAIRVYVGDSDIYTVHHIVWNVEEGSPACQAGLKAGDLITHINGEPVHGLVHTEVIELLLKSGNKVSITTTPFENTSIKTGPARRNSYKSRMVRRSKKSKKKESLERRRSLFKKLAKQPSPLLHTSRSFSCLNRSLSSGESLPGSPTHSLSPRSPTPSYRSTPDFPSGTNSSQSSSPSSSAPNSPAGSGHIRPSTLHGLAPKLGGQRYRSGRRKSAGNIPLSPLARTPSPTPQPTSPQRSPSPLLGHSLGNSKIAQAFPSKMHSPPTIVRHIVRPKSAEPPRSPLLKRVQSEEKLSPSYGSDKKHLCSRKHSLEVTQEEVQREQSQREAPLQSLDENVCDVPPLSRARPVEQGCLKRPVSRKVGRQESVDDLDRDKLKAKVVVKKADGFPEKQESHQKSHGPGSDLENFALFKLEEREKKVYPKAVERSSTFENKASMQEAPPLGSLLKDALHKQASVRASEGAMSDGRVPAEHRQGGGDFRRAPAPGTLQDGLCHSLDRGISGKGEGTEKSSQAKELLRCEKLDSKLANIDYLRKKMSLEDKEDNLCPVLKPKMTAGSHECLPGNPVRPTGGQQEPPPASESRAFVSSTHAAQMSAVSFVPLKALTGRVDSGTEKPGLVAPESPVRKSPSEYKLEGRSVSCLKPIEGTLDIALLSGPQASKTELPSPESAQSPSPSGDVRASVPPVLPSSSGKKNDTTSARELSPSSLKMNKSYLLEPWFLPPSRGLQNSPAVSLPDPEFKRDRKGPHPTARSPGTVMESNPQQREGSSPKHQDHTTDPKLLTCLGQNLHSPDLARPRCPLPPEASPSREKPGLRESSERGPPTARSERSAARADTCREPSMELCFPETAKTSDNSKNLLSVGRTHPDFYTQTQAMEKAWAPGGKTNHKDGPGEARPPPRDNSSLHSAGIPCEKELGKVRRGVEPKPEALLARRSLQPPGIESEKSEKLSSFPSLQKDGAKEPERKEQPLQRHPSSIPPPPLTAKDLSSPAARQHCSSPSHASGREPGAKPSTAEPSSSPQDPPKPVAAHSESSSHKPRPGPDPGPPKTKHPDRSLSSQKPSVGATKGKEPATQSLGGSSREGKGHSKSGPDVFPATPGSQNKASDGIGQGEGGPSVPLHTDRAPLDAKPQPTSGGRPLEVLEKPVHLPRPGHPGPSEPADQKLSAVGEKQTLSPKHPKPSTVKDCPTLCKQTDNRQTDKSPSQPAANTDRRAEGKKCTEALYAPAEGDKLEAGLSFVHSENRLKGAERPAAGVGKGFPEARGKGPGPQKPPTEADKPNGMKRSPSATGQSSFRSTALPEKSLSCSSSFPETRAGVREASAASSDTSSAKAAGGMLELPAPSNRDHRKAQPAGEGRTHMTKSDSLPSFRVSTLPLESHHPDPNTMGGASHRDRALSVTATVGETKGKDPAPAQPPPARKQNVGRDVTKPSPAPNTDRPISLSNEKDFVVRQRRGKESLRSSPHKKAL
Procedure, shortened: as §10

[6] = molecular target: T8, PDZ protein (GST-PDZ fusion) (Homo sapiens, UniProt P78352); test: as above; details: PDZ PSD95, PDZ Domain 1, 2, 3
T8 construct: made in house; host or cells: E. coli (DH5alpha, BL21 or JM109)
Procedure, shortened: as §10

[7] = molecular target: T9, PDZ protein (GST-PDZ fusion) (Homo sapiens, UniProt O14907); test: as above; details: PDZ TIP1, PDZ Domain 1
T9 construct: made in house; host or cells: E. coli (DH5alpha, BL21 or JM109)
T9 sequence (O14907 1-124): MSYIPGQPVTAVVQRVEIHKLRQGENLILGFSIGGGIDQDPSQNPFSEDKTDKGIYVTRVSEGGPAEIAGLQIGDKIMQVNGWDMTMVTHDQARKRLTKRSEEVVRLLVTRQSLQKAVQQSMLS
Procedure, shortened: as §10

[8] = molecular target: T10, PDZ protein (GST-PDZ fusion) (Homo sapiens, UniProt Q6P0Q8); test: as above; details: PDZ KIAA807
T10 construct: made in house; host or cells: E. coli (DH5alpha, BL21 or JM109)
Procedure, shortened: as §10

[9] = tested on: PDZ protein (GST-PDZ fusion); test: as above
Procedure, shortened: as §10

CC(CN(C)C)CN1c2ccccc2CCc2ccccc21 (centres unmarked) [Trinipramine, TRIMIPRAMINE MALEATE]
Change in OD: absorbance at 450 nm in presence of drug [1]: 1.1 to 2.2

HPTDITGLPNLSDPSVSTVV (Biotin-HPTDITGLPNLSDPSVSTVV) [NMDA R2C]
Classification (NeDLG (PDZ Domain 1, 2)): 2 (A450 nm 1-2)
Classification [2]: 1 (A450 nm 0-1)
Classification (DLG1 (PDZ Domain 1, 2)): 1 (A450 nm 0-1)
Classification [3]: 1 (A450 nm 0-1)
Classification [4]: 1 (A450 nm 0-1)

CNCCC=C1c2ccccc2CCc2ccccc21 [Nortryptilline, NORTRIPTYLINE HYDROCHLORIDE]
CHANGE IN OD: absorbance at 450 nm in presence of drug (ZO-2 (1/3) : DNAM (22L); OD in absence of drug 2.1, drug concentration per TABLE 11, read after 30 minutes): 2.1 to 0.5
antagonistic effect, binding relative to absence of drug (ZO-2 (1/3) : DNAM (22L); ZO-2 domain 1 and DNAM-1): 4.2 fold

A2AB_HUMAN (modified) (Biotin-QDFRRAFRRILARPWTQTAW; not fully specified)
Classification [5]: 4 (A450 nm 3-4)
Classification [6]: 5 (A450 nm of 4 more than 2× repeated)
Classification [7]: 5 (A450 nm of 4 more than 2× repeated)
Classification [8]: 4 (A450 nm 3-4)
Classification ([9]; PDZ BAI-1, PDZ Domain 2): 4 (A450 nm 3-4)
Classification ([9]; PDZ BAI-1, PDZ Domain 4): 5 (A450 nm of 4 more than 2× repeated)
